Laboratory results as given in patent US20150037868.

Key:
[1] = system: Pgi with HRV 3C recognition sequence inserted after amino acid 531
[2] = system: wild-type Pgi protein (phosphoglucose isomerase of Escherichia coli)
[3] = system: Pta variant with HRV protease cleavage motif inserted after amino acid 381
[4] = system: Pgi with HRV 3C recognition sequence inserted after amino acid 529
[5] = system: Pgi with HRV 3C recognition sequence inserted after amino acid 108
[6] = system: Pgi with HRV 3C recognition sequence inserted after amino acid 109
[7] = system: Pgi with HRV 3C recognition sequence inserted after amino acid 410
[8] = system: Pta variant with HRV protease cleavage motif inserted after amino acid 409
[9] = system: Pgi with HRV 3C recognition sequence inserted after amino acid 110
[10] = system: Pgi with HRV 3C recognition sequence inserted after amino acid 532
[11] = system: Pta variant with HRV protease cleavage motif inserted after amino acid 387
[12] = system: Pta variant with HRV protease cleavage motif inserted after amino acid 382
[13] = system: Pgi-HRV-I526 (Pgi with HRV 3C recognition sequence inserted after amino acid 526)
[14] = system: Pgi with HRV 3C recognition sequence inserted after amino acid 530
[15] = system: Pgi with HRV 3C recognition sequence inserted after amino acid 527
[16] = system: Pgi with HRV 3C recognition sequence inserted after amino acid 528
[17] = system: Pgi with HRV 3C recognition sequence inserted after amino acid 138

Work on “exogenous HRV 3C protease (ACCELAGEN H0101S)” yielded a Pgi Activity/Activity wild type, +protease; -protease value 0.56 [1] of 0.28, a Pgi activity in clarified lysate, +protease (10 units exogenous HRV 3C protease, 4 h, 37 C); -protease value 1.29 (µmol/min/mg total protein) [1] of 0.67 and a Pgi Activity/Activity wild type, +protease; -protease value 1 [2] of 1. The Pgi activity in clarified lysate, +protease (10 units exogenous HRV 3C protease, 4 h, 37 C); -protease value 2.31 (µmol/min/mg total protein) [2] was 2.37, the “in vitro Pta activity with or without exogenously supplied HRV protease, 30 minutes at 37 C” value [3] was “In all cases, Pta activity was dramatically reduced upon incubation with HRV protease” and the Pgi Activity/Activity wild type, +protease; -protease value 0.64 [4] was 0.5. The Pgi activity in clarified lysate, +protease (10 units exogenous HRV 3C protease, 4 h, 37 C); -protease value 1.48 (µmol/min/mg total protein) [4] was 1.19, the Pgi Activity/Activity wild type, +protease; -protease value 0.94 [5] was 0.86 and the Pgi activity in clarified lysate, +protease (10 units exogenous HRV 3C protease, 4 h, 37 C); -protease value 2.16 (µmol/min/mg total protein) [5] was 2.03. The Pgi Activity/Activity wild type, +protease; -protease value 1.10 [6] was 0.78, the Pgi activity in clarified lysate, +protease (10 units exogenous HRV 3C protease, 4 h, 37 C); -protease value 2.54 (µmol/min/mg total protein) [6] was 1.86 and the Pgi Activity/Activity wild type, +protease; -protease value 0.50 [7] was 0.41. For the same substance, the Pgi activity in clarified lysate, +protease (10 units exogenous HRV 3C protease, 4 h, 37 C); -protease value 1.16 (µmol/min/mg total protein) [7] was 0.96, the “in vitro Pta activity with or without exogenously supplied HRV protease, 30 minutes at 37 C” value [8] was “In all cases, Pta activity was dramatically reduced upon incubation with HRV protease” and the Pgi Activity/Activity wild type, +protease; -protease value 0.92 [9] was 0.84. For the same substance, the Pgi activity in clarified lysate, +protease (10 units exogenous HRV 3C protease, 4 h, 37 C); -protease value 2.13 (µmol/min/mg total protein) [9] was 1.99, the Pgi Activity/Activity wild type, +protease; -protease value 0.50 [10] was 0.22 and the Pgi activity in clarified lysate, +protease (10 units exogenous HRV 3C protease, 4 h, 37 C); -protease value 1.15 (µmol/min/mg total protein) [10] was 0.52. For the same substance, the “in vitro Pta activity with or without exogenously supplied HRV protease, 30 minutes at 37 C” value [11] was “In all cases, Pta activity was dramatically reduced upon incubation with HRV protease”, the “in vitro Pta activity with or without exogenously supplied HRV protease, 30 minutes at 37 C” value [12] was “In all cases, Pta activity was dramatically reduced upon incubation with HRV protease” and the Pgi Activity/Activity wild type, +protease; -protease value 0.83 [13] was 0.19. For the same substance, the Pgi activity in clarified lysate, +protease (10 units exogenous HRV 3C protease, 4 h, 37 C); -protease value 1.92 (µmol/min/mg total protein) [13] was 0.44, the Pgi Activity/Activity wild type, +protease; -protease value 0.33 [14] was 0.12 and the Pgi activity in clarified lysate, +protease (10 units exogenous HRV 3C protease, 4 h, 37 C); -protease value 0.77 (µmol/min/mg total protein) [14] was 0.29. The Pgi Activity/Activity wild type, +protease; -protease value 0.84 [15] was 0.6, the Pgi activity in clarified lysate, +protease (10 units exogenous HRV 3C protease, 4 h, 37 C); -protease value 1.93 (µmol/min/mg total protein) [15] was 1.42 and the Pgi Activity/Activity wild type, +protease; -protease value 0.45 [16] was 0.26. The Pgi activity in clarified lysate, +protease (10 units exogenous HRV 3C protease, 4 h, 37 C); -protease value 1.04 (µmol/min/mg total protein) [16] was 0.63, the Pgi Activity/Activity wild type, +protease; -protease value 0.27 [17] was 0.16 and the Pgi activity in clarified lysate, +protease (10 units exogenous HRV 3C protease, 4 h, 37 C); -protease value 0.62 (µmol/min/mg total protein) [17] was 0.37.
